Laboratory results as given in US20240150449A1 (MABYLON, published 2024).

Target: T1, recombinant non-phosphorylated full-length TDP-43 (human, UniProt Q13148 1-414)
T1 construct: Bought recombinant protein; also called non-pathological full-length TDP-43; recombinantly expressed full-length TDP-43 (OriGene Technologies)
Test: ELISA, antigen coated
Experimental: Plates were washed with PBS-Tween 0.05% and blocked 1 h at room temperature with PBS containing 5% Milk (Rapilait, Migros, Zurich, Switzerland) or 2% bovine serum albumin (BSA, Sigma-Aldrich Chemie GmbH, Buchs, Switzerland). Patient sera, B cell conditioned medium, or recombinant antibody preparations were incubated for 2 h at room temperature. Binding of human IgG to the antigen of interest was determined using a HRP-conjugated anti human antibody (anti-IgG-HRP from Jackson ImmunoResearch, West Grove, PA, USA) followed by measurement of the HRP activity using a tetramethylbenzidine substrate solution (TMB, Sigma-Aldrich Chemie GmbH, Buchs, Switzerland).

T1 sequence (Q13148 whole entry): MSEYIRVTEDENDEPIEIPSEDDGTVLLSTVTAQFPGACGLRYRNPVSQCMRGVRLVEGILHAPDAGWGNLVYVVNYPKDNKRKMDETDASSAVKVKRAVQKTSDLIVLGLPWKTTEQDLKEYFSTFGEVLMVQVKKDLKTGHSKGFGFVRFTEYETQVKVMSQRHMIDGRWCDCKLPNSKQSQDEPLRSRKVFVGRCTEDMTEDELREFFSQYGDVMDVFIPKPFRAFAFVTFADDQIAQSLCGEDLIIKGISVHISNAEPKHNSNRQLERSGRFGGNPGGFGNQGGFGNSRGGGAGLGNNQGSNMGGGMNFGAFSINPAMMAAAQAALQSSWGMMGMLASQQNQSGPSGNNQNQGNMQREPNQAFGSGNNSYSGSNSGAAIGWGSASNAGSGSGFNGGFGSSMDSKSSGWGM

binding result: no binding
B1: antibody 15D7 (human IgG) (antibody, V domains shown)
VH: EVQLVESGGGLVQPGGSLRLSCSASGFTFGNYAMHWVRQAPGKGLEYVSAMSSNGGSTYYGDSVKGRFTISRDNSKNTLYLQMSSLRAEDTAVYYCVTRGRKAPSLYYFDCWGPGTLVTVSS
VL: not shown
notes: Recombinant human IgG
